Laboratory results reported in publication PMC11295463, “Prefoldins are novel regulators of the unfolded protein response in artemisinin resistant Plasmodium falciparum malaria [image fx3.gif]” (The Journal of Biological Chemistry, 2024).

B2: recombinant PfPFD6 (6x-His-PfPFD6) (natural protein)
chain: MSQEKISEIIKDISALKTSCEKLNSQLDELITQKVENEMLLEEVKVLEDDSVLHKLVGLVLVKEEKSKCYDTISRRLQYITGEIENRKKVITNSEEKLRKLFSDLEAHAGQRKIPVPQA
notes: Prefoldin subunit 6 of P. falciparum 3D7, PF3D7_0512000; CDS amplified from Pf3D7 cDNA; Resolved at 16 kDa on SDS-PAGE; also called rPfPFD6; Prefoldin subunit 6; source: E. coli BL21 (λDE3), pET-28a(+), purified (Ni-NTA)
B6: recombinant PfPFD3 (6x-His-PfPFD3) (natural protein)
chain: MSFDDLTDNTKSVRNIPGAKFIEHVTEFLQNKNEESILRLARELLLKYKFMEHAFVSRQINTQKKIPELKDALRVVQLLEKRKKIKEKKNLETFFPVEESLYARGIVQKTDKILLWLGANVMVEFPFDEATDLLNQHLERAINLSQEMDNELLWLHEQITTTEINISRIHNYIELKKGMMGKEVDKKTEQVN
modifications: RED-NHS dye label where it was the labelled protein in MST
notes: Prefoldin subunit 3 of P. falciparum 3D7, PF3D7_0718500; CDS amplified from Pf3D7 cDNA; Resolved at 24 kDa on SDS-PAGE; Unlabelled when titrated onto labelled PfPFD5; also called rPfPFD3; Prefoldin subunit 3; source: E. coli BL21 (λDE3), pET-28a(+), purified (Ni-NTA)

Key:
[1] = biological target: T1, PfPFD3 (Prefoldin subunit 3, PF3D7_0718500) (Plasmodium falciparum, UniProt Q8IBR6); assay: competitive microscale thermophoresis: labelled PfPFD3-PfPFD1 complex titrated with BPD; format: binding
T1 construct: recombinant 6x-His-PfPFD3 (CDS in pET-28a(+)), RED-NHS labelled; with PfPFD1 (PF3D7_1107500)

[2] = biological target: B6; assay: MST; Monolith NT.115; PfPFD3 or PfPFD5 labelled with RED-NHS dye, titrated with the other PfPFD subunits; 1× PBS pH 7.5, 0.01% tween-20; 10 min at room temperature; steady-state analysis; conditions: both partners purified
[3] = biological target: T2, recombinant PfPFD5 (6x-His-PfPFD5) (P. falciparum 3D7, UniProt Q8II82 1-248, RED-NHS dye label (labelled protein in MST)); assay: as above; conditions: both partners purified
T2 construct: Prefoldin subunit 5 of P. falciparum 3D7, PF3D7_1128100; CDS amplified from Pf3D7 cDNA; Resolved at 30 kDa on SDS-PAGE; also called rPfPFD5; Prefoldin subunit 5; source: E. coli BL21 (λDE3), pET-28a(+), purified (Ni-NTA)
T2 sequence: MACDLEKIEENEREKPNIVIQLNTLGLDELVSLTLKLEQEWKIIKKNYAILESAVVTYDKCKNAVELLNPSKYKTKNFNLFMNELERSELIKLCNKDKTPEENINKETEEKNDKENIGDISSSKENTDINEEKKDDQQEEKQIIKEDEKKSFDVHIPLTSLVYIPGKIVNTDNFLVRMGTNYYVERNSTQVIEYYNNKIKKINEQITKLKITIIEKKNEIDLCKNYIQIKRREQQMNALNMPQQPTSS

[4] = biological target: B2; assay: SPR; AutoLab ESPRIT; recombinant PfK13 (20 μM) immobilised on a gold chip by amine coupling; PfPFD6 injected at 25 nM to 5 μM; PBS; two-state conformational change model, KD by the Integrated Rate Law equation; conditions: both partners purified

With `OC(CCN1CCCCC1)(c1ccccc1)C1CC2C=CC1C2` (centres unmarked) [BPD, 1-{bicyclo[2.2.1]hept-5-en-2-yl}-1-phenyl-3-(piperidin-1-yl)propan-1-ol] the Kd [1] was 1990 nM.

B1: recombinant PfPFD4 (6x-His-PfPFD4) (natural protein)
chain: MGDIKQNKYDLGLDMTVDDQKKIGKFTNLHYKEPLYEHKIKMMKENIMNIDSSIDEVSLAFDSNDIMLNIGDCFFKFDLDYIEEHLEDRKSEELANLNEMELEYKTKLNEKQKLKTELYAKFGNRIDLN
notes: Prefoldin subunit 4 of P. falciparum 3D7, PF3D7_0904500; CDS amplified from Pf3D7 cDNA; Resolved at 17 kDa on SDS-PAGE; also called rPfPFD4; Prefoldin subunit 4; source: E. coli BL21 (λDE3), pET-28a(+), purified (Ni-NTA)
For B1, the Kd [2] was 11300 nM and the Kd [3] was 104 nM.

B2 was tested, and the Kd [2] was 1880 nM and the Kd [3] was 324 nM.

B3: recombinant PfK13 (∼43 kDa) (natural protein)
chain: TMIDINVGGAIFETSRHTLTQQKDSFIEKLLSGRHHVTRDKQGRIFLDRDSELFRIILNFLRNPLTIPIPKDLSESEALLKEAEFYGIKFLPFPLVFCIGGFDGVEYLNSMELLDISQQCWRMCTPMSTKKAYFGSAVLNNFLYVFGGNNYDYKALFETEVYDRLRDVWYVSSNLNIPRRNNCGVTSNGRIYCIGGYDGSSIIPNVEAYDHRMKAWVEVAPLNTPRSSAMCVAFDNKIYVIGGTNGERLNSIEVYEEKMNKWEQFPYALLEARSSGAAFNYLNQIYVVGGIDNEHNILDSVEQYQPFNKRWQFLNGVPEKKMNFGAATLSDSYIITGGENGEVLNSCHFFSPDTNEWQLGPSLLVPRFGHSVLIANI
modifications: Construct limits are not printed. The ~43 kDa band does not fit the full-length 726 aa protein (~83 kDa). It fits the BTB-Kelch propeller region, taken by convention from the BTB domain start at …
With B3 the Kd [4] was 174 nM.

B4: recombinant PfPFD2 (6x-His-PfPFD2) (natural protein)
chain: METKSNVESPNISEPKESKLTYEQIEKDRVQLVSKIEELYQDVVEHKLVLEALENVPSDRRCYRMVGEVLVERTVGEIKPALMDHKNKVEQVIAECQKQLDQKNNEISNFIKSAKAGNLPGGIINGNPSEDTNNLNDKEKKSDGIIF
notes: Prefoldin subunit 2 of P. falciparum 3D7, PF3D7_1416900; CDS amplified from Pf3D7 cDNA; Resolved at 19 kDa on SDS-PAGE; also called rPfPFD2; Prefoldin subunit 2; source: E. coli BL21 (λDE3), pET-28a(+), purified (Ni-NTA)
For B4, the Kd [2] was 682 nM and the Kd [3] was 42.4 nM.

B5: recombinant PfPFD1 (6x-His-PfPFD1) (natural protein)
chain: MSNLYDILGKAVINKEKKDEFQNLILKSEGFIDDVLHEKLRERQKKRDEILQDLFDMEILIENLKLFVNMKDKSEVETLTSLGCDSYVYADIINKNKIFIQLGYEFYLEMTLEEAIKFLKKKINLYEEKLSYWNKQISHVKAHIQILMRAISNLT
notes: Prefoldin subunit 1 of P. falciparum 3D7, PF3D7_1107500; CDS amplified from Pf3D7 cDNA; Resolved at 20 kDa on SDS-PAGE; also called rPfPFD1; Prefoldin subunit 1; source: E. coli BL21 (λDE3), pET-28a(+), purified (Ni-NTA)
Molecule B5 has a Kd [2] of 81.6 nM and a Kd [3] of 851 nM.

B6 was tested, and the Kd [3] was 1340 nM.
